In the RNAGym collection of RNA variant scans (doi:10.1073/pnas.2313332121):
Fewer inactive variants are shown than the library holds.

B1: TPR 5TU (parent)
chain: GGAUCUUCUCGAUCUAACAAAAAAGACAAAUCUGCCACAAAGCUUGAGAGCAUCUUCGGAUGCAGAGGCGGCAGCCUUCGGUGGCGCGAUAGCGCCAACGUUCUCAACUAUGACACGCAAAACGCGUGCUCCGUUGAAUGGAGUUUAUCAUG

Variants of: B1
Assay: polymerase ribozyme fitness, log enrichment relative to wild type (log ratio); higher = more active; in vitro selection for triplet polymerase activity
In short: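 Each subunit of a heterodimeric triplet polymerase ribozyme was mutagenized into a library by PCR, transcribed, and subjected to one round of in vitro selection, run in triplicate. Libraries were annealed with a biotinylated primer, the partner subunit and triplets, incubated frozen at −7 °C, and extended constructs were gel-excised, captured on streptavidin beads and recovered by RT-PCR. Input and output libraries were sequenced on Illumina, keeping genotypes with ≥10 input reads and ≥1 read per output. Fitness is log base 2 of genotype enrichment divided by wild-type enrichment, from inverse-variance-weighted replicate averages.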

| Variant | polymerase ribozyme fitness (log ratio) |
| --- | --- |
| GGAUCUUCUCGAUCUAACAAAAAAGACAAAUCUGCCACAAAGCUUGAGAGCCUCUUCGAAUGCAGAGACGGCAGCCUUUGGUGGCGCGAUAUCGCCAACGUUCGCAACUAUGACACGCAAAACGCGUGCUCCGUUGAAUGGAGUUUAUCAUG [A52C G59A G68A C79U G92U U104G] | ≤ -4.2 |
| GGAUCUUCUCGAUCUAACAAAAAAGACAAAUCUGCCACAAAGCUUGAGAGCAUCUUCGGAUGCAGAGGCGGCAGACUUCGGUGGCGUGAUAGCGCCAACGUUCUCAACUAUGACACGCAAAACGCGUGCUCCGUUGAAUGGAGUUUAUCAUG [C75A C87U] | -3.81 |
| GGAUCUUCUCGAUCUAACAAAAAAGACAAAUCUGCCACAAAGCUUGAGAGCAUCUUCGGAUGCAGAGGCGGCAGCCUUCGGGGGCGCGUUUGCGCCAUCCUUCUCAACUAUGACACGCAAAACGCGUGCUCCGUUGAAUGGAGUUUAUCAUG [U82G A89U A91U A98U G100C] | ≤ -4.2 |
| GGAUCUUCUCGAUCUUACAAAAAAGACAAAUCUGCCACAAAGCUUGAGAGCAUCUUCGGAUGCAGAGGCGGCAGCCUUCGGUGGCGCGAUAGCGCCAACGUUCUCGACUAUGACACGCAAAACGCGUGCUCCGUUGAAUGGAGUUUAUCAUG [A16U A106G] | -1.8 |
| GGAUCUUCUCGAUGUAACAAAAAAUACAAAUCUGCAACAAAGCUUGAGAGCAUCGUCGGAUGCACAGGCGGCAGUCUUCGGUGGCGCGAUAGCGCCAACGUUCUCAACUAUGACACGCAAAACGCGUGCUCCGUUGAAUGCAGUUUAUCAUG [C14G G25U C36A U55G G65C C75U G141C] | ≤ -4.2 |
| GGAUCUUCUCGAUCUAACAAAAAAGACAAACCUGCCACAAAGCUUGAGAGCAUCAUCGGAUGCAGAGGCGGCAGCCUUCGGUGGCGCGAUAGCGCCAACGUUCUCAACUAUGACACGCAAAACGCGUGCUCCGUUUAAUGGAGUUUAUCGUG [U31C U55A G136U A150G] | -1.81 |
| GGAUCUUCUCGAUCUAACAAAAAAGACAAAUCUGCCACAAAGCUUGAGAGCAUCUUCGGAUGCAGAGGCGGCAGCCUUCGGUGGUGCGAUAGCGCCAACGUUCUCAACUAUGACACGCAAAACGCUUGCUCCGUUGAAAGGAGCUUAUCAUG [C85U G126U U139A U144C] | -3.59 |
| GGAUCUUCUCGAUCUAACAAAAAAGACAAAUCUGCCACAAAGCUUGAGAGCAUCUUCGGAUGCAGAGGCGGCAGCCUUCGGUCGCGCGAUAGCGCCAACGUUCUCAACAAUGACCCGCAAAACGCGUGCUCCGUUGAAUCGAGUUUAUCAUG [G83C U109A A115C G140C] | ≤ -4.2 |
| GGGUCUUCUCGAUCUAACAAAAAAGACAAAUCUGCCACAAAGCUUGAGAGCAUCUUCGGAUGCAGAGGCGGCAGCCUUCGGUGGCGCGAUAGCGCCAACGUUCUCAACUAUGACAUGCAAAACACGUGCUCCGUUGAAUGGGGUUUAUCAUG [A3G C116U G124A A142G] | -2.6 |
| GGAUCUUCUAGAUCUAACAAAAAAGACAAAUCUGCCACAAUGCUUGAGAGGAUCUUCGGAUGCAGAGGCGGCAGCCUUCGGUGGCGAGAUAGCGCCAACGUUCUCAACUAUGACACGCAAAACGCGUGCUCCGUUGAAUGGAGUUUAUCAUG [C10A A41U C51G C87A] | ≤ -4.2 |
| GGAUCUUCUCGAUCUAACAAAAAAGACAAAUCUGCCACAAAGCUUGAGAGCAUCUUCGGAUGCAGAGGCGGCAGCCUUCGGUGGCACGAUAGCGCCAACGUUCUCAACUAUGACACGCAAAACGCGUGCUCCGUUGAAUGGAGUUUAUCGUG [G86A A150G] | -3.09 |
| GGAUCUUCUCGAUCUAACUAAAAAGACAAAUCUGCCACAAAGCUUGAGAUCAUCUUCCGAUGCAGAGGCGGCAGUCUUCGGUGGCGCGAUAGCGCCAACGUUCUCAACUAUGACACGGAGAACGCGUGCUCCGUUGAAUGAAGUUAAUCAUG [A19U G50U G58C C75U C118G A120G G141A U146A] | ≤ -4.2 |
| GGAUCUUCUCGAUCUAACAAAAAAGACAAAUCUGCCACAAAGCUUGAGAGCAUCUUCGGAUGCAGAGGCGGCAGCCUUCGGUUGCGCGAUAGCGCCAACGUUCUCAACUAUGACACGCAAAACGCGUGCUCCGUUGAAUGGAGUUAAUCAUG [G83U U146A] | -1.19 |
| GGAUCUUCUCGAUCUAACAAAAAAUACAAAUCUGCCACAAAGCUUGAGCGCAUCUUCGGAUGCAGAGUCGGCAGCCUUCGGUGACGGGUUAGCCCCAACGUUCUCAACUAUGAAACGCAAAACGCGUGCUCCGUUGAAUGGAGUUUAGCAUG [G25U A49C G68U G84A C87G A89U G94C C114A U148G] | ≤ -4.2 |
| GGAUCGUCUGGAUAUAACAAAAAAGACAAAUCUGCCACAAAGCUUGAGCGCAUCUUCGGAUGCAGAGGCGGCAGCCUUCGGUGGAGCGAUAGUGCCAACGUUCUCAACUAUGACAUGCAAAACGCGUGCUCCGUUGAAUGGAGUUUAUCAUG [U6G C10G C14A A49C C85A C93U C116U] | ≤ -4.2 |
| GGAUCUUCUCGAACUAACAAAAAAGACAAAUCUGCCACAAAGCUUGAGAGCAUCUUCAGAUGCAGAGGCGGCAGCCUUCGGUGGCGUGAUAGCGCCAACGUUCUAAAUUAUGACACGCAAAACACGUGCUCCGUUGAAUGGAGUAUAUCAUG [U13A G58A C87U C105A C108U G124A U145A] | ≤ -4.2 |
| GGAUCUUCUCGAUCUAACAAAAAAGACAAAUCUGCCACAAAGCUUGAGAGCAUCUUCGGAUGCAGAGGCGGCAGCCUUCGCUGGCGCGAUAGCGCCAACGUUCUCAACUAUGACACGCAAAACGCCUGCUCCGUUGAAUGGAGUUUAUCAUG [G81C G126C] | 0.723 |
| GGAUCUGCUCGAUCUAACAAGAAAGACAAAUCUGCCACAAAGCUUGAGAGCAUCUUGGGAUGCAGAGGCGGCAGCCUUCGGUGGCGCGAUAGCGCCAACGUUCUCAACUAUGACACGCAAAACGCGGGCGUCGUGGAAUGGAGUUUAACAUG [U7G A21G C57G U127G U130G C131U U135G U148A] | ≤ -4.2 |
| GGAUCUUCUCGAUCUAACAAAAAAGACAAAUCUGCCCCAAAGCUUGAGAGCAUCUUCGGAUUCAGAGGCGGCAGCCUUCGGUGGCUCGAUAGCGCCAACCUUCUCAGCUAUGACACGCAAAACGCGUGCUCCGUUGAAUGGAGUUUAUCAUG [A37C G62U G86U G100C A107G] | ≤ -4.2 |
